Source: the Human Domainome abundance scans (Beltran et al. 2025)
± gives the uncertainty stated by the source.

Assay: abundance fitness (aPCA) (normalised: wild type 0, dead -1); higher = more abundant; growth selection in yeast, the domain comes from the species named
Conditions: Homo sapiens

Row | Substance | abundance fitness
1 | E3 ubiquitin-protein ligase NEDD4-like N215P, Q96PU5 | -0.171 ± 0.074
2 | E3 ubiquitin-protein ligase NEDD4-like N215Q, Q96PU5 | -0.081 ± 0.091
3 | E3 ubiquitin-protein ligase NEDD4-like N215R, Q96PU5 | -0.193 ± 0.063
4 | E3 ubiquitin-protein ligase NEDD4-like N215S, Q96PU5 | -0.013 ± 0.07
5 | E3 ubiquitin-protein ligase NEDD4-like N215T, Q96PU5 | -0.118 ± 0.095
6 | E3 ubiquitin-protein ligase NEDD4-like N215V, Q96PU5 | -0.263 ± 0.071
7 | E3 ubiquitin-protein ligase NEDD4-like N215W, Q96PU5 | -0.293 ± 0.069
8 | E3 ubiquitin-protein ligase NEDD4-like N215Y, Q96PU5 | -0.173 ± 0.1
9 | E3 ubiquitin-protein ligase NEDD4-like N216A, Q96PU5 | 0.016 ± 0.056
10 | E3 ubiquitin-protein ligase NEDD4-like N216C, Q96PU5 | -0.09 ± 0.098
11 | E3 ubiquitin-protein ligase NEDD4-like N216D, Q96PU5 | -0.142 ± 0.085
12 | E3 ubiquitin-protein ligase NEDD4-like N216E, Q96PU5 | -0.188 ± 0.076
13 | E3 ubiquitin-protein ligase NEDD4-like N216F, Q96PU5 | 0.052 ± 0.091
14 | E3 ubiquitin-protein ligase NEDD4-like N216G, Q96PU5 | 0.127 ± 0.052
15 | E3 ubiquitin-protein ligase NEDD4-like N216I, Q96PU5 | 0.014 ± 0.079
16 | E3 ubiquitin-protein ligase NEDD4-like N216L, Q96PU5 | -0.001 ± 0.056
17 | E3 ubiquitin-protein ligase NEDD4-like N216M, Q96PU5 | 0.18 ± 0.094
18 | E3 ubiquitin-protein ligase NEDD4-like N216P, Q96PU5 | -0.147 ± 0.089
19 | E3 ubiquitin-protein ligase NEDD4-like N216Q, Q96PU5 | -0.343 ± 0.1
20 | E3 ubiquitin-protein ligase NEDD4-like N216R, Q96PU5 | -0.239 ± 0.065
21 | E3 ubiquitin-protein ligase NEDD4-like N216S, Q96PU5 | 0.065 ± 0.058
22 | E3 ubiquitin-protein ligase NEDD4-like N216T, Q96PU5 | 0.127 ± 0.086
23 | E3 ubiquitin-protein ligase NEDD4-like N216V, Q96PU5 | -0.151 ± 0.056
24 | E3 ubiquitin-protein ligase NEDD4-like N216W, Q96PU5 | 0.029 ± 0.062

Row | Substance | abundance fitness
25 | E3 ubiquitin-protein ligase NEDD4-like P191A, Q96PU5 | -0.044 ± 0.07
26 | E3 ubiquitin-protein ligase NEDD4-like P191C, Q96PU5 | -0.155 ± 0.087
27 | E3 ubiquitin-protein ligase NEDD4-like P191D, Q96PU5 | -0.086 ± 0.11
28 | E3 ubiquitin-protein ligase NEDD4-like P191E, Q96PU5 | -0.086 ± 0.07
29 | E3 ubiquitin-protein ligase NEDD4-like P191F, Q96PU5 | -0.326 ± 0.12
30 | E3 ubiquitin-protein ligase NEDD4-like P191G, Q96PU5 | -0.118 ± 0.054
31 | E3 ubiquitin-protein ligase NEDD4-like P191H, Q96PU5 | -0.072 ± 0.073
32 | E3 ubiquitin-protein ligase NEDD4-like P191I, Q96PU5 | 0.152 ± 0.12
33 | E3 ubiquitin-protein ligase NEDD4-like P191K, Q96PU5 | 0.024 ± 0.076
34 | E3 ubiquitin-protein ligase NEDD4-like P191M, Q96PU5 | -0.378 ± 0.057
35 | E3 ubiquitin-protein ligase NEDD4-like P191N, Q96PU5 | 0.051 ± 0.064
36 | E3 ubiquitin-protein ligase NEDD4-like P191Q, Q96PU5 | 0.024 ± 0.074
37 | E3 ubiquitin-protein ligase NEDD4-like P191R, Q96PU5 | -0.167 ± 0.061
38 | E3 ubiquitin-protein ligase NEDD4-like P191S, Q96PU5 | 0.037 ± 0.069
39 | E3 ubiquitin-protein ligase NEDD4-like P191T, Q96PU5 | 0.125 ± 0.077
40 | E3 ubiquitin-protein ligase NEDD4-like P191V, Q96PU5 | -0.028 ± 0.058
41 | E3 ubiquitin-protein ligase NEDD4-like P191W, Q96PU5 | -0.378 ± 0.058
42 | E3 ubiquitin-protein ligase NEDD4-like P191Y, Q96PU5 | -0.432 ± 0.14
43 | E3 ubiquitin-protein ligase NEDD4-like P192A, Q96PU5 | -0.021 ± 0.078
44 | E3 ubiquitin-protein ligase NEDD4-like P192D, Q96PU5 | -0.173 ± 0.063
45 | E3 ubiquitin-protein ligase NEDD4-like P192E, Q96PU5 | -0.369 ± 0.079
46 | E3 ubiquitin-protein ligase NEDD4-like P192F, Q96PU5 | -0.296 ± 0.075
47 | E3 ubiquitin-protein ligase NEDD4-like P192G, Q96PU5 | -0.064 ± 0.06
48 | E3 ubiquitin-protein ligase NEDD4-like P192H, Q96PU5 | -0.1 ± 0.071

Row | Substance | abundance fitness
49 | E3 ubiquitin-protein ligase NEDD4-like P192I, Q96PU5 | -0.269 ± 0.1
50 | E3 ubiquitin-protein ligase NEDD4-like P192K, Q96PU5 | -0.086 ± 0.095
51 | E3 ubiquitin-protein ligase NEDD4-like P192L, Q96PU5 | -0.173 ± 0.072
52 | E3 ubiquitin-protein ligase NEDD4-like P192M, Q96PU5 | 0.094 ± 0.082
53 | E3 ubiquitin-protein ligase NEDD4-like P192N, Q96PU5 | -0.014 ± 0.059
54 | E3 ubiquitin-protein ligase NEDD4-like P192Q, Q96PU5 | 0.02 ± 0.076
55 | E3 ubiquitin-protein ligase NEDD4-like P192R, Q96PU5 | 0.012 ± 0.055
56 | E3 ubiquitin-protein ligase NEDD4-like P192S, Q96PU5 | -0.201 ± 0.082
57 | E3 ubiquitin-protein ligase NEDD4-like P192W, Q96PU5 | -0.484 ± 0.072
58 | E3 ubiquitin-protein ligase NEDD4-like P192Y, Q96PU5 | -0.31 ± 0.068
59 | E3 ubiquitin-protein ligase NEDD4-like P193A, Q96PU5 | -0.12 ± 0.068
60 | E3 ubiquitin-protein ligase NEDD4-like P193C, Q96PU5 | 0.042 ± 0.095
61 | E3 ubiquitin-protein ligase NEDD4-like P193D, Q96PU5 | -0.131 ± 0.076
62 | E3 ubiquitin-protein ligase NEDD4-like P193E, Q96PU5 | -0.07 ± 0.087
63 | E3 ubiquitin-protein ligase NEDD4-like P193F, Q96PU5 | -0.339 ± 0.11
64 | E3 ubiquitin-protein ligase NEDD4-like P193G, Q96PU5 | -0.086 ± 0.058
65 | E3 ubiquitin-protein ligase NEDD4-like P193H, Q96PU5 | -0.058 ± 0.11
66 | E3 ubiquitin-protein ligase NEDD4-like P193I, Q96PU5 | -0.079 ± 0.052
67 | E3 ubiquitin-protein ligase NEDD4-like P193K, Q96PU5 | -0.033 ± 0.069
68 | E3 ubiquitin-protein ligase NEDD4-like P193L, Q96PU5 | -0.103 ± 0.055
69 | E3 ubiquitin-protein ligase NEDD4-like P193N, Q96PU5 | -0.25 ± 0.11
70 | E3 ubiquitin-protein ligase NEDD4-like P193Q, Q96PU5 | -0.21 ± 0.098
71 | E3 ubiquitin-protein ligase NEDD4-like P193R, Q96PU5 | 0.025 ± 0.055
72 | E3 ubiquitin-protein ligase NEDD4-like P193S, Q96PU5 | -0.042 ± 0.063

Row | Substance | abundance fitness
73 | E3 ubiquitin-protein ligase NEDD4-like P193T, Q96PU5 | -0.177 ± 0.075
74 | E3 ubiquitin-protein ligase NEDD4-like P193V, Q96PU5 | -0.003 ± 0.054
75 | E3 ubiquitin-protein ligase NEDD4-like P193W, Q96PU5 | -0.359 ± 0.067
76 | E3 ubiquitin-protein ligase NEDD4-like P193Y, Q96PU5 | -0.057 ± 0.062
77 | E3 ubiquitin-protein ligase NEDD4-like P194A, Q96PU5 | -0.057 ± 0.066
78 | E3 ubiquitin-protein ligase NEDD4-like P194C, Q96PU5 | -0.147 ± 0.076
79 | E3 ubiquitin-protein ligase NEDD4-like P194D, Q96PU5 | -0.008 ± 0.09
80 | E3 ubiquitin-protein ligase NEDD4-like P194E, Q96PU5 | -0.103 ± 0.072
81 | E3 ubiquitin-protein ligase NEDD4-like P194F, Q96PU5 | -0.443 ± 0.084
82 | E3 ubiquitin-protein ligase NEDD4-like P194G, Q96PU5 | -0.05 ± 0.059
83 | E3 ubiquitin-protein ligase NEDD4-like P194H, Q96PU5 | -0.094 ± 0.073
84 | E3 ubiquitin-protein ligase NEDD4-like P194I, Q96PU5 | -0.294 ± 0.1
85 | E3 ubiquitin-protein ligase NEDD4-like P194K, Q96PU5 | 0.071 ± 0.063
86 | E3 ubiquitin-protein ligase NEDD4-like P194L, Q96PU5 | -0.094 ± 0.054
87 | E3 ubiquitin-protein ligase NEDD4-like P194M, Q96PU5 | 0.013 ± 0.072
88 | E3 ubiquitin-protein ligase NEDD4-like P194N, Q96PU5 | -0.304 ± 0.11
89 | E3 ubiquitin-protein ligase NEDD4-like P194Q, Q96PU5 | 0.061 ± 0.079
90 | E3 ubiquitin-protein ligase NEDD4-like P194R, Q96PU5 | 0.048 ± 0.065
91 | E3 ubiquitin-protein ligase NEDD4-like P194S, Q96PU5 | -0.06 ± 0.065
92 | E3 ubiquitin-protein ligase NEDD4-like P194T, Q96PU5 | -0.107 ± 0.07
93 | E3 ubiquitin-protein ligase NEDD4-like P194V, Q96PU5 | -0.002 ± 0.058
94 | E3 ubiquitin-protein ligase NEDD4-like P194W, Q96PU5 | -0.327 ± 0.076
95 | E3 ubiquitin-protein ligase NEDD4-like P194Y, Q96PU5 | -0.279 ± 0.093
